# Patent publication US20030152959
# Biological target: T1, GST-ERRα1 (Homo sapiens) (UniProt P11474)
# T1 sequence: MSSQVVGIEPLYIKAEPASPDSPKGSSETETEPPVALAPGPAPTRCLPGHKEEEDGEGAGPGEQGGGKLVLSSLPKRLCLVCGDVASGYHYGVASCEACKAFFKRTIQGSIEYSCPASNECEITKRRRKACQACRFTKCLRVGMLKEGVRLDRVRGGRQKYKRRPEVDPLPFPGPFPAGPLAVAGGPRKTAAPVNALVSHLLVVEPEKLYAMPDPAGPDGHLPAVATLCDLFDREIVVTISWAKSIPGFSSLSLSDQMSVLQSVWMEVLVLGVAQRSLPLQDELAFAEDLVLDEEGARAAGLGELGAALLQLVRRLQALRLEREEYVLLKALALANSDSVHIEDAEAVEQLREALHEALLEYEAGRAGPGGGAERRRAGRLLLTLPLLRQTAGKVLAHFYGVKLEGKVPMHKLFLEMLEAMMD
# Settings: cell-free transcription, HeLa nuclear extract, approximate
substance,measurement,value
SV40 genome / late promoter template,activity (fold repression),3
